From ChEMBL document CHEMBL3352481, “Synthesis of {[5-(adenin-9-yl)-2-furyl]methoxy}methyl phosphonic acid and evaluations against human adenylate kinases” (Bioorg Med Chem Lett, 2014)

Tests used:
Details in all cases: Homo sapiens; call rule not given here
[1] = test system: Nc1ncnc2c1ncn2-c1ccc(COCP(=O)(O)O)o1; test: (§1) Activity of recombinant AK2 (unknown origin) assessed as ADP formation by spectroscopic pyruvate kinase/lactate dehydrogenase coupled assay
[2] = test system: Nc1ncnc2c1ncn2[C@@H]1O[C@H](COP(=O)(O)O)[C@@H](O)[C@H]1O; test: as §1
[3] = test system: Nc1ncnc2c1ncn2[C@H]1C[C@H](O)[C@@H](COP(=O)(O)O)O1; test: as §1
[4] = test system: C[C@H](Cn1cnc2c(N)ncnc21)OCP(=O)(O)O; test: as §1
[5] = test system: Nc1ncnc2c1ncn2CCOCP(=O)(O)O; test: as §1
[6] = test system: Nc1ncnc2c1ncn2-c1ccc(CO)o1; test: as §1
[7] = test system: Nc1ncnc2c1ncn2-c1ccc(COCP(=O)(O)O)o1; test: (§2) Ratio of Kcat to Km for recombinant AK2 (unknown origin)
[8] = test system: Nc1ncnc2c1ncn2[C@@H]1O[C@H](COP(=O)(O)O)[C@@H](O)[C@H]1O; test: as §2
[9] = test system: Nc1ncnc2c1ncn2[C@H]1C[C@H](O)[C@@H](COP(=O)(O)O)O1; test: as §2
[10] = test system: C[C@H](Cn1cnc2c(N)ncnc21)OCP(=O)(O)O; test: as §2
[11] = test system: Nc1ncnc2c1ncn2CCOCP(=O)(O)O; test: as §2
[12] = test system: Nc1ncnc2c1ncn2-c1ccc(CO)o1; test: as §2

Adenylate kinase 2, mitochondrial (Homo sapiens) (from UniProt P54819)
Km [1]: 420 µM
kcat [1]: 1.06 s⁻¹
Km [2]: 380 µM
kcat [2]: 80 s⁻¹
Km [3]: 210 µM
kcat [3]: 110 s⁻¹
Km [4]: 3000 µM
kcat [4]: 2.4 s⁻¹
Km [5]: 6000 µM
kcat [5]: 1.5 s⁻¹
Km [6]: Not Active
kcat [6]: Not Active
kcat/Km [7]: 0.025 ×10⁶ /M/s
kcat/Km [8]: 0.21 ×10⁶ /M/s
kcat/Km [9]: 0.5 ×10⁶ /M/s
kcat/Km [10]: 800 M⁻¹ s⁻¹
kcat/Km [11]: 250 ×10⁶ /M/s
kcat/Km [12]: Not Active
